According to PMC5042466, “Irreversible Inhibition of Glutathione S-Transferase by Phenethyl Isothiocyanate (PEITC), a Dietary Cancer Chemopreventive Phytochemical” (PLoS ONE, 2016):

Biological target: the molecule itself
Assay: crystal structure; hGSTA1 (13 mg/ml) mixed with GSH and PEITC, 6 h at 4°C; sitting drop, 20% PEG 3350, 0.2 M sodium acetate; 1.93 Å, space group C2

B1: human alpha class glutathione S-transferase of subunit type 1 (hGSTA1), Cys112-PEITC adduct, with GS-PEITC bound (enzyme)
chain: AEKPKLHYFNARGRMESTRWLLAAAGVEFEEKFIKSAEDLDKLRNDGYLMFQQVPMVEIDGMKLVQTRAILNYIASKYNLYGKDIKERALIDMYIEGIADLGEMILLLPVCPPEEKDAKLALIKEKIKNRYFPAFEKVLKSHGQDYLVGNKLSRADIHLVELLYYVEELDSSLISSFPLLKALKTRISNLPTVKKFLQPGSPRKPPMDEKSLEEARKIFRF
modifications: Cys112 side chain covalently modified by PEITC (phenethyl isothiocyanate)
notes: glutathione S-transferase alpha 1 (hGSTA1), human; In the crystal the active site holds the small-molecule product GS-PEITC; also called hGSTA1-PEITC; hGSTA1:GS-PEITC; source: prepared as described [11,12]
binding result: binds
